One assay deals with 刺突S-鼠Fc融合蛋白 (S-mFc) (SARS-CoV-2; mouse, UniProt P0DTC2 14-1213). As to the kind of experiment: flow cytometry, blocking of S-mFc binding to 293T-ACE2 cells.
Assay [1] concerns the target T1, SARS-CoV-2 S1蛋白 (ACRO Biosystems) (SARS-CoV-2, UniProt P0DTC2 16-685).
T1 construct: domain: S1; also called SARS-CoV-2S1抗原; 生物素化SARS-CoV-2S1
The assay can be described thus: competition ELISA, S1 coated, competitor HRP-labelled hACE2-Fc. For orientation: An ELISA detects its analyte on a solid surface through an enzyme-linked reagent.

Assay [2] concerns the target T1, SARS-CoV-2 S1蛋白 (ACRO Biosystems). As to the kind of experiment: BLI, biotinylated SARS-CoV-2 S1 on SA sensor, antibody as analyte, 1:1 fit. (Biolayer interferometry detects binding as a change in optical thickness at a sensor tip.)

As usually defined, the IC50 is the concentration at which inhibition is half-maximal. Higher therefore signals lower potency. One may read the EC50 as the concentration that produces a half-maximal response. A low value points to greater potency. Usually Kd stands for the constant that tells how readily two partners part at equilibrium. The low end stands for tighter binding, the high end for weaker binding. Broadly, the koff is the first-order rate constant of dissociation. One may read the kon as the second-order rate constant of association. A low value points to slower complex formation.

B1: 人源化抗体hS1B-73-3 (antibody, V domains shown)
VH: EVQLVQSGAEVKKPGSSVKVSCKASGYAFTNFLIEWVREAPGQGLEWIGMINPGSGDTNYNEKFKGKATLTADKSTSTVYMELSSLRSEDTAVYFCARQLGLPGFVYWGRGTTVTVSS
VL: DIQMTQSPSSLSASVGDRVTITCKASQDINSYLTWLQQKPGKSPKTLIYRANRLVEGVPSRFSGSGSGQDFTLKISSLQPEDIATYYCLQHDEFPLTFGQGTKLEIKR
notes: also called 抗SARS-CoV-2S1 RBD人源化抗体hS1B-73-3
The molecule B1 registered an IC50 in the assay with 刺突S-鼠Fc融合蛋白 (S-mFc) of 0.00433 µg/mL. In assay [1], this molecule registered an EC50 of 0.0254 µg/mL. Besides, in assay [2], the Kd was 20.7 pM, the koff was 2.22e-05 s⁻¹ and the kon is 1.07e+06 M⁻¹ s⁻¹.
